Source: patent publication US20140235701, “NGF APTAMER AND APPLICATION THEREOF” (RIBOMIC INC., published 2014)

How the values were obtained:
Conditions in all cases: tags: R&D Systems; chain copies: 2
[1] = biological target: T1, NGF (nerve growth factor) (Homo sapiens, UniProt P01138 P01138:122-241); test: cell_activity; TF-1 proliferation
Procedure: (§1) Two NGF receptor (human TrkA and human p75) genes were introduced into TF-1 cells (ATCC Number: CRL-2003), which is a human erythroleukemic cell line, by using a retrovirus vector to give cells that highly express two receptors simultaneously and stably. The cells were suspended in an RPMI-1640 medium containing 20% fetal bovine serum, and seeded in a white 96 well flat-bottom plate at 1000 cells (50 μL) per well. […] With the amount of luminescence per well obtained by the addition of NGF alone and culture of the cells for 3 days as inhibitory activity 0%, and that of the well obtained by NGF free culture for 3 days as inhibitory activity 100%, the inhibitory activity of the aptamer was calculated from the amount of luminescence per well obtained by culturing with the addition of NGF and the aptamer in mixture.

NT-3 (neurotrophin-3) [2] = biological target: T2, NT-3 (neurotrophin-3) (Homo sapiens, UniProt P20783 P20783:139-257); test: SPR; scarcely bound
T2 sequence: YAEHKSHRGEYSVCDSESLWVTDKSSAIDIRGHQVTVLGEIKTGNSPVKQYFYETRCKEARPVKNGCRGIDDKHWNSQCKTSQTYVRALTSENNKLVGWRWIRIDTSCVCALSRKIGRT
Procedure: (§2) The binding activity of these shortened forms to NGF and NT-3 was measured by the surface plasmon resonance method. For the measurement method, BIAcore2000 manufactured by BIAcore was used and CM5 reactive with amino group was used as a sensorchip, as shown in Example 1. The protein was immobilized in the same manner as in Example 1 by using ethyl-3-carbodiimide hydrochloride and N-hydroxysuccinimide. […] After protein immobilization, blocking with ethanolamine-HCl was performed. The amount of immobilized NGF and NT-3 was 3,000-4,000 RU and 3,000-5,000 RU, respectively. The aptamer for an analyte was prepared to 0.15 μM-0.5 μM. The running buffer and regeneration solution were the same as those in Example 1. NT-3 was immobilized on FC2, and NGF on FC3, and the final sensorgram was obtained by subtracting the results of FC1.
(§3) Then, the aptamers were subjected to shortening to 40 mer in the same manner as with consensus secondary structure 1. […] NT-4 was measured in the same manner as in NT-3.
(§4) The shortened sequences were measured for the binding to NGF, NT-3, NT-4 by the surface plasmon resonance method. The measurement was performed in the same manner as in Example 13.

NT-4 (neurotrophin-4) [3] = biological target: T3, NT-4 (neurotrophin-4) (Homo sapiens, UniProt P34130 P34130:81-210); test: SPR; scarcely bound
T3 sequence: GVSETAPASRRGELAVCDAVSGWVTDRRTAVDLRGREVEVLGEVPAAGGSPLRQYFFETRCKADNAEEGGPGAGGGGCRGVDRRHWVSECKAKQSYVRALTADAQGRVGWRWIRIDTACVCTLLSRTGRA
Procedure: as §2, §3, §4

[4] = biological target: T1, NGF (nerve growth factor); test: cell_activity; neurite; TF-1 0.193
[5] = biological target: T1, NGF (nerve growth factor); test: cell_activity; neurite; TF-1 0.322
[6] = biological target: T1, NGF (nerve growth factor); test: cell_activity; neurite; TF-1 0.296
[7] = biological target: T1, NGF (nerve growth factor); test: cell_activity; neurite; TF-1 0.455
NT-3 (neurotrophin-3) [8] = biological target: T2, NT-3 (neurotrophin-3); test: cell_activity; TF-1
NT-4 (neurotrophin-4) [9] = biological target: T3, NT-4 (neurotrophin-4); test: cell_activity; TF-1
[10] = biological target: T1, NGF (nerve growth factor); test: cell_activity; neurite; TF-1 0.028
Procedure: (§5) With the neurite length per cell obtained by the addition of NGF alone as inhibitory activity 0%, and that of the cell obtained by NGF free culture for 2 days as inhibitory activity 100%, the inhibitory activity of the aptamer was calculated from the neurite length per cell obtained by culturing with the addition of NGF and the aptamer in mixture.
as §1

[11] = biological target: T1, NGF (nerve growth factor); test: cell_activity; neurite; TF-1 0.073
[12] = biological target: T1, NGF (nerve growth factor); test: cell_activity; neurite; TF-1 0.083
[13] = biological target: T1, NGF (nerve growth factor); test: cell_activity; neurite; TF-1 0.056
[14] = biological target: T1, NGF (nerve growth factor); test: cell_activity; neurite; TF-1 0.024
[15] = biological target: T1, NGF (nerve growth factor); test: cell_activity; neurite; TF-1 0.097
Procedure: as §5, §1

[16] = biological target: T1, NGF (nerve growth factor); test: cell_activity; neurite; TF-1 0.093
[17] = biological target: T1, NGF (nerve growth factor); test: cell_activity; neurite; TF-1 0.015
[18] = biological target: T1, NGF (nerve growth factor); test: cell_activity; neurite; TF-1 0.183
[19] = biological target: T1, NGF (nerve growth factor); test: cell_activity; neurite; TF-1 0.081
[20] = biological target: T1, NGF (nerve growth factor); test: cell_activity; neurite; TF-1 0.363
[21] = biological target: T1, NGF (nerve growth factor); test: cell_activity; neurite; TF-1 0.039
Procedure: as §5, §1

[22] = biological target: T1, NGF (nerve growth factor); test: cell_activity; neurite; TF-1 0.311
Procedure: as §5, §1

[23] = biological target: T1, NGF (nerve growth factor); test: cell_activity; neurite; TF-1 0.048
[24] = biological target: T1, NGF (nerve growth factor); test: cell_activity; neurite; TF-1 0.087
[25] = biological target: T1, NGF (nerve growth factor); test: cell_activity; neurite; TF-1 0.047
[26] = biological target: T1, NGF (nerve growth factor); test: cell_activity; neurite; TF-1 0.031
Procedure: as §5, §1

[27] = biological target: T1, NGF (nerve growth factor); test: cell_activity; neurite; TF-1 0.016
[28] = biological target: T1, NGF (nerve growth factor); test: cell_activity; neurite; TF-1 0.042
[29] = biological target: T1, NGF (nerve growth factor); test: cell_activity; neurite; TF-1 0.266

T1 sequence (P01138 122-241, one chain of several): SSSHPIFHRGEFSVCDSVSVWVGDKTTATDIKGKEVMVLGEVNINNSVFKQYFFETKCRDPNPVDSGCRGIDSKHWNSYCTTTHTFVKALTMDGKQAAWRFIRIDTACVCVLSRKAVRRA

Work on GGGUCCUGCUGCGGAGUUUCCGUCUCGGUGGCUGUUACCC (ssRNA, 2'-OMe G (G8,G34 2'-OH), dA, 2'-F C/U; 5',3' idT) [SEQ ID NO: 62(1)] yielded an IC50 [1] of 0.49 nM.

GGGUCCUGUUCAAGAGUUUCCGUCUCGUGGACUGUUACCC (ssRNA, 2'-F C/U, dA, 2'-OH G) [SEQ ID NO: 112] was tested, and the binding result (NT-3 (neurotrophin-3) [2]) was “no binding”, the binding result (NT-4 (neurotrophin-4) [3]) was “no binding” and the IC50 [4] was 0.334 nM.

GGGUCCUGUUCAAGAGUUUCCGUCUCGUGAACUGUUACCC (ssRNA, 2'-F C/U, dA, 2'-OH G) [SEQ ID NO: 116] was tested, and the binding result (NT-3 (neurotrophin-3) [2]) was “no binding” and the IC50 [5] was 0.411 nM.

With GGGUCCUGACAAAGAGUUUCCGUCUCGUUGUCUGUUACCC (ssRNA, 2'-F C/U, dA, 2'-OH G) [SEQ ID NO: 114] the binding result (NT-3 (neurotrophin-3) [2]) was “no binding”, the binding result (NT-4 (neurotrophin-4) [3]) was “no binding” and the IC50 [6] was 0.363 nM.

GGGUCCUGUUGAAGAGUUUCCGUCUCGUCAACUGUUACCC (ssRNA, 2'-F C/U, dA, 2'-OH G) [SEQ ID NO: 117] was tested, and the binding result (NT-3 (neurotrophin-3) [2]) was “no binding”, the binding result (NT-4 (neurotrophin-4) [3]) was “no binding” and the IC50 [7] was 0.394 nM.

Binder GGGUCCUGGAUAAGAGUUUCCGUCUCGUAUCCUGUUACCC (ssRNA, as 82(1) except 2'-OMe C40) [SEQ ID NO: 82(18)] has an IC50 (NT-3 (neurotrophin-3) [8]) of 38.7 nM, an IC50 (NT-4 (neurotrophin-4) [9]) of less than 3 nM and an IC50 [10] of 0.244 nM.

With GGGUCCUGGAUAAGAGUUUCCGUCUCGUAUCCUGUUACCC (ssRNA, as 82(25) except dU25) [SEQ ID NO: 82(40)] the IC50 [11] was 0.239 nM.

Work on GGGUCCUGGAUAAGAGUUUCCGUCUCGUAUCCUGUUACCC (ssRNA, as 82(1) except 2'-OMe U4,C6,U11,C21,U23,C26,U28,U30,C32,U35,C38-40) [SEQ ID NO: 82(22)] yielded an IC50 (NT-3 (neurotrophin-3) [8]) of less than 30 nM and an IC50 [12] of less than 0.1 nM.

Binder GGGUCCUGGAUAAGAGUUUCCGUCUCGUAUCCUGUUACCC (ssRNA, as 82(25) except 2'-OMe A10,A15,A29,A37) [SEQ ID NO: 82(48)] has an IC50 [13] of 0.252 nM.

Work on GGGUCCUGGAUAAGAGUUUCCGUCUCGUAUCCUGUUACCC (ssRNA, as 82(25) except 2'-OMe A10) [SEQ ID NO: 82(45)] yielded an IC50 [14] of 0.037 nM.

Binder GGGUCCUGGAUAAGAGUUUCCGUCUCGUAUCCUGUUACCC (ssRNA, as 82(25) except dU7) [SEQ ID NO: 82(37)] has an IC50 [15] of 0.098 nM.

Work on GGGUCCUGGAUAAGAGUUUCCGUCUCGUAUCCUGUUACCC (ssRNA, as 82(1) except dC5) [SEQ ID NO: 82(27)] yielded an IC50 [16] of 0.25 nM.

B1: SEQ ID NO: 78(3) (ssRNA)
RNA: GGGUCCUGGCCAAGAGUUUCCGUCUCGUGGUCUGUUACCC
modifications: 2'-OMe G (G8,G34 2'-OH), dA, 2'-F C/U except 2'-OMe U4,C6,C10,C11,C21,U23,C26,U28,C32,U35,C38-40; 5',3' idT
B1 was tested, and the IC50 [17] was 0.045 nM.

GGGUCCUGUCUAAGAGUUUCCGUCUCGUAGACUGUUACCC (ssRNA, 2'-F C/U, dA, 2'-OH G) [SEQ ID NO: 115] was tested, and the binding result (NT-3 (neurotrophin-3) [2]) was “no binding”, the binding result (NT-4 (neurotrophin-4) [3]) was “no binding” and the IC50 [18] was 0.298 nM.

GGGUCCUGGAUAAGAGUUUCCGUCUCGUAUCCUGUUACCC (ssRNA, as 82(48) without 5' idT; PS between A12 and A13) [SEQ ID NO: 82(60)] gave an IC50 [19] of 0.034 nM.

GGGUCCUGUCUAAGAGUUUCCGUCUCGUAGACUGUUACCC (ssRNA, 2'-F C/U, dA, 2'-OH G) [SEQ ID NO: 111] was tested, and the IC50 [20] was 0.252 nM.

For GGGUCCUGGAUAAGAGTUUCCGUCUCGUAUCCTGUUACCC (ssRNA, as 82(25) except dT17,dT33,dU36, 2'-OMe A37) [SEQ ID NO: 165], the IC50 [21] was 0.139 nM.

GGGUCCUGAGUAAGAGUUUCCGUCUCAUACUCUGUUACCC (ssRNA, 2'-F C/U, dA, 2'-OH G) [SEQ ID NO: 85] was tested, and the IC50 [22] was less than 0.3 nM.

For GGGUCCUGGAUAAGAGTUUCCGUCUCGUAUCCTGUUACCC (ssRNA, as 82(25) except dU7,dT17,dT33) [SEQ ID NO: 164], the IC50 [23] was 0.132 nM.

GGGUCCUGGAUAAGAGUUUCCGUCUCGUAUCCUGUUACCC (ssRNA, as 82(25) except 2'-OMe C20) [SEQ ID NO: 82(26)] was tested, and the IC50 (NT-3 (neurotrophin-3) [8]) was less than 30 nM and the IC50 [24] was 0.13 nM.

In the case of GGGUCCUGGAUAAGAGTUUCCGUCUCGUAUCCTGUUACCC (ssRNA, as 82(25) except dT17,dT33,dU36) [SEQ ID NO: 163], the IC50 [25] is reported as 0.113 nM.

With GGGUCCUGGAUAAGAGUUUCCGUCUCGUAUCCUGUUACCC (ssRNA, as 82(1) except 2'-OMe U4,C6,U11,C21,U23,C26,U30,C32,U35,C38-40) [SEQ ID NO: 82(20)] the IC50 (NT-3 (neurotrophin-3) [8]) was less than 30 nM and the IC50 [26] was 0.244 nM.

B2: SEQ ID NO: 78(2) (ssRNA)
RNA: B1 RNA
modifications: 2'-OMe G (G8,G34 2'-OH), dA, 2'-F C/U except 2'-OMe U4,C6,C21,U23,C26,U28,U31,C32,U35,C38-40; 5',3' idT
B2 was tested, and the IC50 [27] was 0.045 nM.

Binder GGGUCCUGGAUAAGAGUUUCCGUCUCGUAUCCUGUUACCC (ssRNA, as 82(25) except dU36) [SEQ ID NO: 82(41)] has an IC50 [28] of 0.084 nM.

Binder GGGUCCUGGAUAAGAGUUUCCGUCUCGUAUCCUGUUACCC (ssRNA, as 82(48) without 5' idT; PS between G34 and U35) [SEQ ID NO: 82(63)] has an IC50 [29] of 0.046 nM.
